Bounds are passed on as bounds.

Experiment [1] deals with T1, Human PTGFRN-ECD (extracellular domain; amino-acid 26 to amino-acid Y at 832), His-tag protein (human, UniProt Q9P2B2 26-832).
T1 construct: range 26-832; Expressed in Hek-293 cells, purified on a nickel column; also called recombinant PTGFRN; not shown: His-tag
T1 sequence (looked up): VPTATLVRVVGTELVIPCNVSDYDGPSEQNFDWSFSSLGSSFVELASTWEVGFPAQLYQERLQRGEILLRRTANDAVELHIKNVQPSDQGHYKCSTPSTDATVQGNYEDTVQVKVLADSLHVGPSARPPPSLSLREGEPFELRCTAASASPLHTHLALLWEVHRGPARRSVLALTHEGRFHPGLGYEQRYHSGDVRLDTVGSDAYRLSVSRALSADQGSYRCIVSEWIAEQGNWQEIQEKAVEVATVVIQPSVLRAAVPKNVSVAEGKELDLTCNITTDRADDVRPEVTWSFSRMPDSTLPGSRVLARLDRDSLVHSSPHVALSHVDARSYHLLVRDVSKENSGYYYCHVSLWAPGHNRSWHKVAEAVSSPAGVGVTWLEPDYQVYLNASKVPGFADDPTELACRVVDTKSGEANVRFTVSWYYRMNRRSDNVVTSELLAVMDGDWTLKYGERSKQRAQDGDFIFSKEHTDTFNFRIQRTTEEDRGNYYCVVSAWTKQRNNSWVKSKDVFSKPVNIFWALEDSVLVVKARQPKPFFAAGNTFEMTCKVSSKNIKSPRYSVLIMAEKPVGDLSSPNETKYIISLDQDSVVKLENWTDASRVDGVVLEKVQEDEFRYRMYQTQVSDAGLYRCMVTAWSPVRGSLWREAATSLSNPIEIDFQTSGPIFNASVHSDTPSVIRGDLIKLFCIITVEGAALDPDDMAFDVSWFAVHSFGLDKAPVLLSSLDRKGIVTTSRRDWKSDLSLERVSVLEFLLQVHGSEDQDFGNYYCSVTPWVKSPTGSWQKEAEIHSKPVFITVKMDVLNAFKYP
Put plainly: BLI, Octet Red96, mAb on AMC sensor, PTGFRN-ECD 100 nM as analyte.

Experiment [2] addresses T1, Human PTGFRN-ECD (extracellular domain; …). Put plainly: Octet Red96 pairing (binning matrix) on PTGFRN-ECD; capture Ab (1st loading Ab): 7B4. A general note: Biolayer interferometry detects binding as a change in optical thickness at a sensor tip.
The target is the same in experiment [3]. Description: Octet Red96 pairing (binning matrix) on PTGFRN-ECD; capture Ab (1st loading Ab): 9A9.
Experiment [4] has the same target. Put plainly: Octet Red96 pairing (binning matrix) on PTGFRN-ECD; capture Ab (1st loading Ab): 9D8.
Experiment [5] shares this target. Put plainly: Octet Red96 pairing (binning matrix) on PTGFRN-ECD; capture Ab (1st loading Ab): 9G8.
The target is the same in experiment [6]. Put plainly: Octet Red96 pairing (binning matrix) on PTGFRN-ECD; capture Ab (1st loading Ab): 10D9.
For experiment [7] the target is unchanged. Put plainly: Octet Red96 pairing (binning matrix) on PTGFRN-ECD; capture Ab (1st loading Ab): 10E6.
Experiment [8] has the same target. Put plainly: Octet Red96 pairing (binning matrix) on PTGFRN-ECD; capture Ab (1st loading Ab): 2B12.
The target is the same in experiment [9]. Put plainly: Octet Red96 pairing (binning matrix) on PTGFRN-ECD; capture Ab (1st loading Ab): 33B7.
Experiment [10] has the same target. Description: Octet Red96 pairing (binning matrix) on PTGFRN-ECD; capture Ab (1st loading Ab): 4F4.
For experiment [11] the target is unchanged. Description: Octet Red96 pairing (binning matrix) on PTGFRN-ECD; capture Ab (1st loading Ab): 6F6.
Experiment [12] has the same target. Description: Octet Red96 pairing (binning matrix) on PTGFRN-ECD; capture Ab (1st loading Ab): 1E2.

B1: 1E2 (antibody, V domains shown)
VH: DVQLQESGPGLVKPSQSLSLTCSVTDYSITSGYYWNWIRQFPGNKLEWMGYISYDGSNNYNPSLKNRLSITRDTSKNQFFLKLNSVTPEDTATYYCARGWDYCFDYWGQGATLTVSS
VL: DIQMTQTTSSLSASLGDRVTISCSASQGISNYLNWYQQKPDGTVKLLIYYTSGLHSGVPSRFSGSGSGTDYSLTISNLEPEDIATYYCQQYSQLPWTFGGGTKLEIK
notes: Mouse hybridoma mAb
As usually defined, the Kd is the constant that tells how readily two partners part at equilibrium. For orientation: koff means the rate constant with which the complex falls apart. Broadly, the kon is a measure of how fast the partners come together. For B1, the Kd in experiment [1] was below 1 pM. In experiment [1], the Response came to 0.41. In addition, the koff in experiment [1] is below 1e-07 s⁻¹. For the same molecule, in experiment [1], the kon worked out at 63800 M⁻¹ s⁻¹. Moreover, the Octet pairing response in experiment [2] was determined as 0.157; in [3] it was 0.27; in [4], 0.184; in [5], 0.215; in experiment [6] it was 0.24; in experiment [7] it was 0.306. The Octet pairing response is 0.23 in experiment [8] and 0.185 in experiment [9].

B2: 3E10 (antibody, V domains shown)
VH: EVHLVESGGDLVKPGGSLKLSCAASGFTFSSYGMSWVRQTPDKRLEWVASISSGGSHTYYPDRVKGRFTISRDNAKNTLYLQMSSLKSEDTAMYYCARHPSYYGSSLYCFDYWGQGTTLTVSS
VL: DIQMTQTTSSLSASLGDRVTISCRASQDISNYLNWYQQKPDGTVKLLIYYTSRLHSGVPSRFSGSGSGTDFSLTISNLEQEDVATYFCQQGSTLPWTFGGGTKLEIK
Molecule B2 came in with a Kd in experiment [1] below 1 pM. In experiment [1], this molecule had a Response of 0.472. The koff in experiment [1] was below 1e-07 s⁻¹. In experiment [1], the kon came out at 120000 M⁻¹ s⁻¹. Moreover, the Octet pairing response in experiment [10] turned out to be 0.112; in [11], 0.0759; in experiment [2] it was 0.12; in experiment [3], 0.224; in [4] it was 0.199; in experiment [5] it was 0.124. In addition, the Octet pairing response in experiment [6] stood at 0.219; in experiment [7], 0.305; in [8], 0.251; in [9], 0.252.

B3: 6F6 (antibody, V domains shown)
VH: QVQLQQSGAELVKPGASVKVSCKASGYTFTTYWMHWVKQRPGQGLEWIGRIHPSDSDTNYNQKFKGKATLTLDKSSSTAYMQLSSLTSEDSAVYYCAMSLYYTMDYWGQGTSVTVSS
VL: DIQMTQSPSSLSASLGGKVTITCKASQDIKKYIAWYQHKPGKGPRLLIHYTSTLQPGIPSRFSGSGSGRDYSFSISNLEPEDIATYYCLQYDNLLYTFGGGTKLEIK
notes: Mouse hybridoma mAb
In the case of B3, the Kd in [1] is below 1 pM. The same molecule showed a Response in experiment [1] of 0.335. This molecule registered a koff in experiment [1] below 1e-07 s⁻¹. In addition, in [1], the kon is 69100 M⁻¹ s⁻¹. For the same molecule, the Octet pairing response came out at 0.232 in [12]; 0.131 in experiment [10]; 0.103 in experiment [2]; 0.222 in experiment [3]; 0.165 in [4]; 0.146 in experiment [5]. Further, the Octet pairing response came out at 0.191 in [6], 0.255 in [7], 0.124 in experiment [8] and 0.126 in experiment [9].

B4: 2B12 (antibody, V domains shown)
VH: QVQLQQPGAELVKPGASVKMSCKASGYTFTSYWITWVKQGPGQGLEWIGDIYPGSGNTNYNEKFKSKATLTVDTSSSTAYMQLSSLTSEDSAVYYCARFFILTSYYFDYWGQGTTLTVSS
VL: GIVMTQSQKFMSTTVGDRVSITCKASQNVGTAVAWFQQKPGQSPKLLIYLASNRYTGVPDRFTGSGSGTDFTLTISNMQSEDLADYFCQQYSNYPLTFGAGTKLELK
notes: Mouse hybridoma mAb
In turn, B4 gave a Kd in experiment [1] below 1 pM. The Response in [1] came to 0.272. In addition, the koff in experiment [1] was below 1e-07 s⁻¹. Further, the kon in experiment [1] worked out at 48500 M⁻¹ s⁻¹. In addition, the Octet pairing response was found to be 0.27 in [12]; 0.13 in experiment [11]; 0.0818 in [2]; 0.0744 in experiment [3]; 0.0857 in experiment [4]; 0.0926 in experiment [5]. For the same molecule, the Octet pairing response was found to be 0.111 in [6], 0.157 in experiment [7] and 0.132 in [9].

B5: 10D9 (antibody, V domains shown)
VH: DVQLQESGPGLVKPSQSLSLTCSVTGCSITSGYDWNWIRQFPGNKLEWMGYINYDGNSNYIPSLKNRVSITRDTSKNQFFLKLNSVTTEDTATYYCARSDGYYWYFDVWGTGTTVTVSS
VL: DIKMTQSPSSMYASLGERVTITCKASQDIKSYLSWYQQKPWKSPKTLIYYATSLADGVPSRFSASGSGQDYSLTISSLESDDTATYYCLQHAERPLTFGAGTKLELK
notes: Mouse hybridoma mAb
For the molecule B5, in experiment [1], the Kd was below 1 pM. In addition, in experiment [1], the Response came to 0.342. For the same molecule, in experiment [1], the koff is below 1e-07 s⁻¹. The kon in [1] is 85600 M⁻¹ s⁻¹. Moreover, the Octet pairing response is 0.269 in [12]; 0.215 in experiment [11]; 0.1 in [2]; 0.226 in experiment [3]; 0.186 in experiment [4]; 0.142 in experiment [5]. Also, the results for the Octet pairing response in experiment [7], in experiment [8] and in [9] were 0.329, 0.18 and 0.236, respectively.

B6: 9A9 (antibody, V domains shown)
VH: QVQLQQSGPELVKPGASVKLSCKASGYTFTTYDINWVKQRPGQGLEWIGWLYPRDGNTNYNEKFKGKASLTVDTSSSTAYMELHSLTSEDSAVYFCARDYYGSTYGYFDYWGQGTTLTVSS
VL: DIQMTQSPASLSASVGGTVTITCRASEKIYSYLAWYQQKQGKSPQLLVYDANTLAQGVPSRFSGSGSGTQFSLKINSLQPEDFGSYYCQHHYVTPLTFGAGTKLALK
notes: Mouse hybridoma mAb
In [1], B6 gave a Kd below 1 pM, a Response of 0.319, a koff below 1e-07 s⁻¹ and a kon of 151000 M⁻¹ s⁻¹. Further, the Octet pairing response in experiment [2] came out at 0.162.

B7: 33B7 (antibody, V domains shown)
VH: DVQLQESGPGLVKPSQSLSLTCSVTGCSITSGYYWNWIRQFPGNKLEWMGYISHDGNNNYSPSLKNRISITRDTSKNQFFLKLNSVTTEDTATYYCARGFYYYGYFGYWGQGTTLTVSS
VL: DIVMSQSPSSLAVSVGEKVTMSCKSSQSLLYSTNQKNYLAWYQQKPGQSPKPLIYWASTRESGVPDRFTGSGSGTDFTLTISSVKAEDLAVYYCQQYYSYRTFGGGTKLEIKR
notes: Murine hybridoma monoclonal IgG (ATCC PTA-124281); also called AG02; AGO2
B7: in experiment [1], the Kd stood at 3090 pM, the Response worked out at 0.245, the koff stood at 0.000602 s⁻¹ and the kon was 195000 M⁻¹ s⁻¹. Further, in experiment [10], the Octet pairing response worked out at 0.125.

Source of the values: patent US20210188972A1 (A AND G PHARMACEUTICAL, published 2021).
